For assay [1], the target named is TGF-β2 (Homo sapiens (Human)) (UniProt P61812).
The target in assay [2] is T1, TGF-β3 (Homo sapiens (Human)) (UniProt P10600).
T1 sequence: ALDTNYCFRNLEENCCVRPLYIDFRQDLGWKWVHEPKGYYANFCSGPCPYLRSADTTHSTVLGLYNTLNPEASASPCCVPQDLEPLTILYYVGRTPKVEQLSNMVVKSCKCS

The target in assay [3] is TGF-β1 (Homo sapiens (Human)) (UniProt P01137).

The results in this text go back to US20110236309A1.

For the substance “pan-specific TGF-β neutralizing antibody 1D11 (R&D Systems)”, the IC50 for TGF-β2 (neutralization, Mv1Lu luciferase reporter cells) in assay [1] is 8.67 nM. The IC50 for TGF-β3 (neutralization, Mv1Lu luciferase reporter cells) in assay [2] came to 0.029 nM. This substance also displayed an IC50 for TGF-β1 (neutralization, Mv1Lu luciferase reporter cells) in assay [3] of 1.43 nM.
